Test results taken from patent US20230192818A1.

Experiments:
[1] = target: biotinylated SARS-CoV-2 S1 variant B.1.351 (Example 5) (SARS-CoV-2) (UniProt P0DTC2); experiment: phage ELISA screening
[2] = target: biotinylated SARS-CoV-2 S1 variant P.1 (Example 5) (SARS-CoV-2) (UniProt P0DTC2); experiment: phage ELISA screening

B1: 12-19 (antibody, V domains shown)
VH: QVQLVESGGGVVQPGRSLRLSCAASGFAFSSYAMHWVRQAPGKGLEWVAVISYDGTYEYYADSVKGRFTISRDNSKNTLYLQMNSLRAEDTAVYYCARSLGGSYFSGMDVWGQGTLVTVSS
VL: EIVLTQSPATLSLSPGERATLSCRASQSISRYLAWYQQKPGQAPRLLIYDVSNRATGIPARFSGSGSGTDFTLTISSLEPEDFAVYYCQQSSNWPLFTFGGGTKVEIK
With B1 the ELISA [1] was 13.8.

B2: 12-20 (antibody, V domains shown)
VH: QVQLVESGGGVVQPGRSLRLSCAASGFSFGGYGMHWVRQAPGKGLEWVAVISYDGSNKYYADSVKGRFTISRDNSKNTLYLQMNSLRAEDTAVYYCARSKGGSYYGPFDYWGQGTLVTVSS
VL: EIVLTQSPATLSLSPGERATLSCRASQSLGNYLAWYQQKPGQAPRLLIYDSSNRATGIPARFSGSGSGTDFTLTISSLEPEDFAVYYCQQRNTWPGVTFGGGTKVEIK
Work on B2 yielded an ELISA [1] of 13.3.

B3: 12-21 (antibody, V domains shown)
VH: QVQLVESGGGVVQPGRSLRLSCAASGFSFGGYGMHWVRQAPGKGLEWVAVISYDGSNKYYADSVKGRFTISRDNSKNTLYLQMNSLRAEDTAVYYCARPKGGNYWNAFDIWGQGTLVTVSS
VL: EIVLTQSPATLSLSPGERATLSCRASQSVNSDLAWYQQKPGQAPRLLIYDASNRATGIPARFSGSGSGTDFTLTISSLEPEDFAVYYCQERSLFGGGTKVEIK
Binder B3 has an ELISA [1] of 11.7.

B4: 12-22 (antibody, V domains shown)
VH: QVQLVESGGGVVQPGRSLRLSCAASGFTFSSYGMHWVRQAPGKGLEWVAVISYDGNHEYYADSVKGRFTISRDNSKNTLYLQMNSLRAEDTAVYYCARPKSGSYVSYFDYWGQGTLVTVSS
VL: EIVLTQSPATLSLSPGERATLSCRASQSVRHHLAWYQQKPGQAPRLLIYDASNRATGIPARFSGSGSGTDFTLTISSLEPEDFAVYYCQERSDWPITFGGGTKVEIK
In the case of B4, the ELISA [1] is reported as 10.5.

B5: 12-24 (antibody, V domains shown)
VH: QVQLVESGGGVVQPGRSLRLSCAASGFTFSNFPMHWVRQAPGKGLEWVAVISYDGNNKYYADSVKGRFTISRDNSKNTLYLQMNSLRAEDTAVYYCAKDHGDHYFDYWGQGTLVTVSS
VL: EIVLTQSPATLSLSPGERATLSCRASQSFGDSLAWYQQKPGQAPRLLIYDASNRATGIPARFSGSGSGTDFTLTISSLEPEDFAVYYCQQRSIPITFGGGTKVEIK
In the case of B5, the ELISA [1] is reported as 9.63.

B6: 12-26 (antibody, V domains shown)
VH: QVQLVESGGGVVQPGRSLRLSCAASGFTFSNYAMHWVRQAPGKGLEWVAVISYDGSNEYYADSEKGRFTISRDNSKNTLYLQMNSLRAEDTAVYYCAKSGSGSYFSPFDYWGQGTLVTVSS
VL: EIVLTQSPATLSLSPGERATLSCRASQSVSTSLAWYQQKPGQAPRLLIYDISNRATGIPARFSGSGSGTDFTLTISSLEPEDFAVYYCQQRRSGLTFGGGTKVEIK
With B6 the ELISA [1] was 9.05.

B7: 12-27 (antibody, V domains shown)
VH: QVQLVESGGGVVQPGRSLRLSCAASGFSFGGYGMHWVRQAPGKGLEWVAVISYDGSTKYYADSVKGRFTISRDNSKNTLYLQMNSLRAEDTAVYYCARPRGGSYKDAFDIWGQGTLVTVSS
VL: EIVLTQSPATLSLSPGERATLSCRASDTVSSYLAWYQQKPGQAPRLLIYDTSNRATGIPARFSGSGSGTDFTLTISSLEPEDFAVYYCQQRASWPLSFGGGTKVEIK
In the case of B7, the ELISA [1] is reported as 8.83.

B8: 12-28 (antibody, V domains shown)
VH: QVQLVESGGGVVQPGRSLRLSCAASGFTFSSYAMHWVRQAPGKGLEWVAVISYDGTNEYYADSEKGRFTISRDNSKNTLYLQMNSLRAEDTAVYYCARAHGGSYFSGMDVWGQGTLVTVSS
VL: EIVLTQSPATLSLSPGERATLSCRASQSVRHHLAWYQQKPGQAPRLLIYDASNRATGIPARFSGSGSGTDFTLTISSLEPEDFAVYYCQQSGSWPLTFGGGTKVEIK
In the case of B8, the ELISA [1] is reported as 8.63.

B9: 12-29 (antibody, V domains shown)
VH: QVQLVESGGGVVQPGRSLRLSCAASGFSFSNYGMHWVRQAPGKGLEWVAVISYDGNNKYYADSVKGRFTISRDNSKNTLYLQMNSLRAEDTAVYYCARSKGGSYYGPFDDWGQGTLVTVSS
VL: EIVLTQSPATLSLSPGERATLSCRASQIISSYLAWYQQKPGQAPRLLIYDTSNRATGIPARFSGSGSGTDFTLTISSLEPEDFAVYYCQVRSNWPPLTFGGGTKVEIK
Binder B9 has an ELISA [1] of 7.55.

B10: 12-31 (antibody, V domains shown)
VH: QVQLVESGGGVVQPGRSLRLSCAASGFTFSYYTMHWVRQAPGKGLEWVAVTSYDGSNKYYADSVKGRFTISRDNSKNTLYLQMNSLRAEDTAVYYCARPLGGSYFAAFDIWGQGTLVTVSS
VL: EIVLTQSPATLSLSPGERATLSCRASQSIGSYLAWYQQKPGQAPRLLIYDVSNRATGIPARFSGSGSGTDFTLTISSLEPEDFAVYYCQQRDSFTFGGGTKVEIK
Work on B10 yielded an ELISA [1] of 7.01.

B11: 12-32 (antibody, V domains shown)
VH: QVQLVESGGGVVQPGRSLRLSCAASGFTFGTYAMHWVRQAPGKGLEWVAVISYDGNNKYYADSVKGRFTISRDNSKNTLYLQMNSLRAEDTAVYYCAKTMSGSYFSAFDIWGQGTLVTVSS
VL: EIVLTQSPATLSLSPGERATLSCRASQSIGSYLAWYQQKPGQAPRLLIYDVSNRATGIPARFSGSGSGTDFTLTISSLEPEDFAVYYCQQRDSFTFGGGTKVEIK
B11 gave an ELISA [1] of 6.88.

B12: 12-34 (antibody, V domains shown)
VH: QVQLVESGGGVVQPGRSLRLSCAASGFIFRSYAMHWVRQAPGKGLEWVAVISYDGSSKYYADSVKGRFTISRDNSKNTLYLQMNSLRAEDTAVYYCARPSGGSYFDPFDYWGQGTLVTVSS
VL: EIVLTQSPATLSLSPGERATLSCRASQSVGNFLAWYQQKPGQAPRLLIYDASNRATGIPARFSGSGSGTDFTLTISSLEPEDFAVYYCQHRRLLTFGGGTKVEIK
B12 gave an ELISA [1] of 5.81.

B13: 12-36 (antibody, V domains shown)
VH: QVQLVESGGGVVQPGRSLRLSCAASGFSFNNYGMHWVRQAPGKGLEWVAVISYDGSNDYYADSVKGRFTISRDNSKNTLYLQMNSLRAEDTAVYYCARPNSGSYSNYFDYWGQGTLVTVSS
VL: EIVLTQSPATLSLSPGERATLSCRASQGISTYLAWYQQKPGQAPRLLIYDASNRATGIPARFSGSGSGTDFTLTISSLEPEDFAVYYCQQRRRWPPTFGGGTKVEIK
Work on B13 yielded an ELISA [1] of 5.51.

B14: 12-37 (antibody, V domains shown)
VH: QVQLVESGGGVVQPGRSLRFSCAGTGFTFSSYAMHWVRQAPGKGLEWVAVISYDGSNQYYADSVKGRFTISRDNSKNTLYLQMNSLRAEDTAVYYCARSRSGSYLAYFDYWGQGTLVTVSS
VL: EIELTQSPATLSLSPGERATLSCRASESVSESLAWYQQKPGQAPRLLIYDASNRATGIPARFSGSGSGTDFTLTISSLEPEDFAVYYCQQRTHGVTFGGGTKVEIK
For B14, the ELISA [1] was 5.5.

B15: 12-39 (antibody, V domains shown)
VH: QVQLVESGGGVVQPGRSLRLSCAASGFTFSSYAMHWVRQAPGKGLEWVAVISYDGNHEYYADSVKGRFTISRDNSKNTLYLQMNSLRAEDTAVYYCARAHSGSYFSHFDYWGQGTLVTVSS
VL: EIVLTQSPATLSLSPGERATLSCRASESISTYLAWYQQKPGQAPRLLIYDASNRATGIPARFSGSGSGTDFTLTISSLEPEDLAVYYCQQRRNSLTFGGGTKVEIK
B15 showed an ELISA [1] of 5.09.

B16: 12-42 (antibody, V domains shown)
VH: QVQLVESGGGVVQPGRSLRLSCAASGFTFGSYGMHWVRQAPGKGLEWVAVISYDGSHKYYADSVKGRFTISRDNSKNTLYLQMNSLRAEDTAVYYCARALGGNYYYFDYWGQGTLVTVSS
VL: EIVLTQSPATLSLSPGERATLSCRASQSVDSRLAWYQQKPGQAPRLLIYDTSNRATGIPARFSGSGSGTDFTLTISSLEPEDFAVYYCQQRSSNWTFGGGTKVEIK
In the case of B16, the ELISA [1] is reported as 4.93.

B17: 12-43 (antibody, V domains shown)
VH: QVQLVESGGGVVQPGRSLRLSCAASGFIFSSYGMHWVRQAPGKGLEWVAVISYDGSNEYYADSVKGRFTISRDNSKNTLYLQMNSLRAEDTAVYYCARPRSGSYLSAFDYWGQGTLVTVSS
VL: EIVLTQSPATLSLSPGERATLSCRASQSVGKSLAWYQQKPGQAPRLLIYDTSNRATGIPARFSGSGSGTDFTLTISSLEPEDFAVYYCQQRGSFPLTFGGGTKVEIK
Work on B17 yielded an ELISA [1] of 4.82.

B18: 13-1 (antibody, V domains shown)
VH: QVQLVESGGGVVQPGRSLRLSCAASGFTFSSYSMHWVRQAPGKGLEWVAVISYDGRNQYYADSVKGRFTISRDNSKNTLYLQMNSLRAEDTAVYYCAKGYGGNYYYMDGWGQGTLVTVSS
VL: EIVLTQSPATLSLSPGERATLSCRASQSVGDFLAWYQQKPGQAPRLLIYDTSNRATGIPARFSGSGSGTDFTLTISSLEPEDFAVYYCQQRSIRGTFGGGTKVEIK
Work on B18 yielded an ELISA [2] of 22.2.

B19: 13-3 (antibody, V domains shown)
VH: QVQLVESGGGVVQPGRSLRLSCAASGFSFNNHAMHWVRQAPGKGLEWVAVISYDGSDKYYADSVKGRFTISRDNSKNTLYLQMNSLRAEDTAVYYCARNLLRGYGMDVWGQGTLVTVSS
VL: DIQMTQSPSSLSASVGDRVTITCRASQSIGDYLNWYQQKPGKAPKLLIYEASSLQSGVPSRFSGSGSGTDFTLTISSLQPEDFATYYCLHTYLPPYSFGQGTKVEIK
For B19, the ELISA [2] was 19.5.

B20: 13-4 (antibody, V domains shown)
VH: QVQLVESGGGVVQPGRSLRLSCAASGFAFDDYAMHWVRQAPGKGLEWVAVISYDGSNKYYADSVKGRFTISRDNSKNTLYLQMNSLRAEDTAVYYCATLGYGDYPDYWGQGTLVTVSS
VL: DIQMTQSPSSLSASVGDRVTITCRASQSITRYLNWYQQKPGKAPKLLIYAASSLQSGVPSRFSGSGSGTDFTLTISSLQPEDFATYYCQQTYNFPHTFGQGTKVEIK
Binder B20 has an ELISA [2] of 18.9.

B21: 13-5 (antibody, V domains shown)
VH: QVQLVESGGGVVQPGRSLRLSCAASGFIFRSYAMHWVRQAPGKGLEWVAVISYDGSSKYYADSVKGRFTISRDNSKNTLYLQMNSLRAEDTAVYYCARPLGGGYQDAFDIWGQGTLVTVSS
VL: EIVLTQSPATLSLSPGERATLSCRASQSIGSYLAWYQQKPGQAPRLLIYDVSNRATGIPARFSGSGSGTDFTLTISSFEPEDFAVYYCQQRHHWPPVTFGGGTKVEIK
For B21, the ELISA [2] was 10.3.
